The values that follow come from patent publication US20140357845A1.

Test [1] concerns the target s-H1 Full-length R343Q (A/Brisbane/59/2007), trimeric form (influenza A virus H1N1), B4URD6. As to conditions: remark: other sources report otherwise.
In test [2] the target is s-H1 Full-length R343Q (A/Brisbane/59/2007), monomeric form (influenza A virus H1N1), B4URD6. To be noted: remark: other sources report otherwise.

B1: CR6261 (antibody, V domains shown)
VH: EVQLVESGAEVKKPGSSVKVSCKASGGPFRSYAISWVRQAPGQGPEWMGGIIPIFGTTKYAPKFQGRVTITADDFAGTVYMELSSLRSEDTAMYYCAKHMGYQVRETMDVWGKGTTVTVSS
VL: QSVLTQPPSVSAAPGQKVTISCSGSSSNIGNDYVSWYQQLPGTAPKLLIYDNNKRPSGIPDRFSGSKSGTSATLGITGLQTGDEANYYCATWDRRPTAYVVFGGGTKLTVLG
Regarding B1, the BLI response in test [1] was 1.3 nm; in test [2], 0.9 nm.
